B1: r11_951_TrROS_Hall (parent)
chain: KKKYVIKVYFEDTGKEVEIEAESKEEALEAAKRLAEELGLKIKKVEIYP

Variants of: B1
Experiment: folding stability dG (cDNA display proteolysis); higher = more stable
Conditions: PBS, room temperature
With KKKYVIKVYFEDTGKVVEIEAESKEEALEAAKRLAEELGLKIKKVEIYP [E16V] the “folding stability dG” value was 4.16 kcal/mol.
With KKKYVIKVYFEDTGKKVEIEAESKEEALEAAKRLAEELGLKIKKVEIYP [E16K] the “folding stability dG” value was 4.23 kcal/mol.
For KKKYVIKVYFEDTGKSVEIEAESKEEALEAAKRLAEELGLKIKKVEIYP [E16S], the “folding stability dG” value was 4.38 kcal/mol.
In the case of KKKYVIKVYFEDTGKNVEIEAESKEEALEAAKRLAEELGLKIKKVEIYP [E16N], the “folding stability dG” value is reported as 4.44 kcal/mol.
With KKKYVIKVYFEDTGKDVEIEAESKEEALEAAKRLAEELGLKIKKVEIYP [E16D] the “folding stability dG” value was 4.62 kcal/mol.
In the case of KKKYVIKVYFEDTGKGVEIEAESKEEALEAAKRLAEELGLKIKKVEIYP [E16G], the “folding stability dG” value is reported as 4.35 kcal/mol.
For KKKYVIKVYFEDTGKIVEIEAESKEEALEAAKRLAEELGLKIKKVEIYP [E16I], the “folding stability dG” value was 4.55 kcal/mol.
In the case of KKKYVIKVYFEDTGKHVEIEAESKEEALEAAKRLAEELGLKIKKVEIYP [E16H], the “folding stability dG” value is reported as 4.29 kcal/mol.
In the case of KKKYVIKVYFEDTGKRVEIEAESKEEALEAAKRLAEELGLKIKKVEIYP [E16R], the “folding stability dG” value is reported as 4.22 kcal/mol.
In the case of KKKYVIKVYFEDTGKAVEIEAESKEEALEAAKRLAEELGLKIKKVEIYP [E16A], the “folding stability dG” value is reported as 4.49 kcal/mol.
For KKKYVIKVYFEDTGKCVEIEAESKEEALEAAKRLAEELGLKIKKVEIYP [E16C], the “folding stability dG” value was 4.05 kcal/mol.
In the case of KKKYVIKVYFEDTGKLVEIEAESKEEALEAAKRLAEELGLKIKKVEIYP [E16L], the “folding stability dG” value is reported as 4.29 kcal/mol.
For KKKYVIKVYFEDTGKFVEIEAESKEEALEAAKRLAEELGLKIKKVEIYP [E16F], the “folding stability dG” value was 4.5 kcal/mol.
With KKKYVIKVYFEDTGKPVEIEAESKEEALEAAKRLAEELGLKIKKVEIYP [E16P] the “folding stability dG” value was 4.21 kcal/mol.
In the case of KKKYVIKVYFEDTGKQVEIEAESKEEALEAAKRLAEELGLKIKKVEIYP [E16Q], the “folding stability dG” value is reported as 4.2 kcal/mol.
For KKKYVIKVYFEDTGCEVEIEAESKEEALEAAKRLAEELGLKIKKVEIYP [K15C], the “folding stability dG” value was 3.19 kcal/mol.
With KKKYVIKVYFEDTGQEVEIEAESKEEALEAAKRLAEELGLKIKKVEIYP [K15Q] the “folding stability dG” value was 4.27 kcal/mol.
In the case of KKKYVIKVYFEDTGPEVEIEAESKEEALEAAKRLAEELGLKIKKVEIYP [K15P], the “folding stability dG” value is reported as 4.29 kcal/mol.
For KKKYVIKVYFEDTGVEVEIEAESKEEALEAAKRLAEELGLKIKKVEIYP [K15V], the “folding stability dG” value was 4.37 kcal/mol.
In the case of KKKYVIKVYFEDTGEEVEIEAESKEEALEAAKRLAEELGLKIKKVEIYP [K15E], the “folding stability dG” value is reported as 4.35 kcal/mol.
In the case of KKKYVIKVYFEDTGTEVEIEAESKEEALEAAKRLAEELGLKIKKVEIYP [K15T], the “folding stability dG” value is reported as 4.5 kcal/mol.
In the case of KKKYVIKVYFEDTGHEVEIEAESKEEALEAAKRLAEELGLKIKKVEIYP [K15H], the “folding stability dG” value is reported as 4.54 kcal/mol.
With KKKYVIKVYFEDTGAEVEIEAESKEEALEAAKRLAEELGLKIKKVEIYP [K15A] the “folding stability dG” value was 4.22 kcal/mol.
In the case of KKKYVIKVYFEDTGMEVEIEAESKEEALEAAKRLAEELGLKIKKVEIYP [K15M], the “folding stability dG” value is reported as 4.16 kcal/mol.
With KKKYVIKVYFEDTGDEVEIEAESKEEALEAAKRLAEELGLKIKKVEIYP [K15D] the “folding stability dG” value was 4.17 kcal/mol.
With KKKYVIKVYFEDTGSEVEIEAESKEEALEAAKRLAEELGLKIKKVEIYP [K15S] the “folding stability dG” value was 4.28 kcal/mol.
For KKKYVIKVYFEDTGGEVEIEAESKEEALEAAKRLAEELGLKIKKVEIYP [K15G], the “folding stability dG” value was 4.19 kcal/mol.
With KKKYVIKVYFEDTGYEVEIEAESKEEALEAAKRLAEELGLKIKKVEIYP [K15Y] the “folding stability dG” value was 4.52 kcal/mol.
With KKKYVIKVYFEDTGNEVEIEAESKEEALEAAKRLAEELGLKIKKVEIYP [K15N] the “folding stability dG” value was 4.63 kcal/mol.
In the case of KKKYVIKVYFEDTGIEVEIEAESKEEALEAAKRLAEELGLKIKKVEIYP [K15I], the “folding stability dG” value is reported as 4.22 kcal/mol.
In the case of KKKYVIKVYFEDTGFEVEIEAESKEEALEAAKRLAEELGLKIKKVEIYP [K15F], the “folding stability dG” value is reported as 4.38 kcal/mol.
In the case of KKKYVIKVYFEDTGREVEIEAESKEEALEAAKRLAEELGLKIKKVEIYP [K15R], the “folding stability dG” value is reported as 4.19 kcal/mol.
With KKKYVIKVYFEDTGLEVEIEAESKEEALEAAKRLAEELGLKIKKVEIYP [K15L] the “folding stability dG” value was 4.28 kcal/mol.
For KKKYVIKVYFEDTGWEVEIEAESKEEALEAAKRLAEELGLKIKKVEIYP [K15W], the “folding stability dG” value was 4.23 kcal/mol.
In the case of KKKYVIKVYFEVTGKEVEIEAESKEEALEAAKRLAEELGLKIKKVEIYP [D12V], the “folding stability dG” value is reported as 4.34 kcal/mol.
For KKKYVIKVYFEMTGKEVEIEAESKEEALEAAKRLAEELGLKIKKVEIYP [D12M], the “folding stability dG” value was 4.55 kcal/mol.
With KKKYVIKVYFEATGKEVEIEAESKEEALEAAKRLAEELGLKIKKVEIYP [D12A] the “folding stability dG” value was 4.41 kcal/mol.
With KKKYVIKVYFEKTGKEVEIEAESKEEALEAAKRLAEELGLKIKKVEIYP [D12K] the “folding stability dG” value was 4.62 kcal/mol.
With KKKYVIKVYFEHTGKEVEIEAESKEEALEAAKRLAEELGLKIKKVEIYP [D12H] the “folding stability dG” value was 4.49 kcal/mol.
In the case of KKKYVIKVYFERTGKEVEIEAESKEEALEAAKRLAEELGLKIKKVEIYP [D12R], the “folding stability dG” value is reported as 4.79 kcal/mol.
For KKKYVIKVYFELTGKEVEIEAESKEEALEAAKRLAEELGLKIKKVEIYP [D12L], the “folding stability dG” value was 4.59 kcal/mol.
In the case of KKKYVIKVYFEPTGKEVEIEAESKEEALEAAKRLAEELGLKIKKVEIYP [D12P], the “folding stability dG” value is reported as 4.35 kcal/mol.
In the case of KKKYVIKVYFEGTGKEVEIEAESKEEALEAAKRLAEELGLKIKKVEIYP [D12G], the “folding stability dG” value is reported as 4.54 kcal/mol.
For KKKYVIKVYFESTGKEVEIEAESKEEALEAAKRLAEELGLKIKKVEIYP [D12S], the “folding stability dG” value was 4.38 kcal/mol.
In the case of KKKYVIKVYFENTGKEVEIEAESKEEALEAAKRLAEELGLKIKKVEIYP [D12N], the “folding stability dG” value is reported as 4.42 kcal/mol.
In the case of KKKYVIKVYFETTGKEVEIEAESKEEALEAAKRLAEELGLKIKKVEIYP [D12T], the “folding stability dG” value is reported as 4.5 kcal/mol.
In the case of KKKYVIKVYFEFTGKEVEIEAESKEEALEAAKRLAEELGLKIKKVEIYP [D12F], the “folding stability dG” value is reported as 4.64 kcal/mol.
With KKKYVIKVYFECTGKEVEIEAESKEEALEAAKRLAEELGLKIKKVEIYP [D12C] the “folding stability dG” value was 4.38 kcal/mol.
With KKKYVIKVYFEETGKEVEIEAESKEEALEAAKRLAEELGLKIKKVEIYP [D12E] the “folding stability dG” value was 4.31 kcal/mol.
For KKKYVIKVYFEWTGKEVEIEAESKEEALEAAKRLAEELGLKIKKVEIYP [D12W], the “folding stability dG” value was 4.75 kcal/mol.
For KKKYVIKVYFEITGKEVEIEAESKEEALEAAKRLAEELGLKIKKVEIYP [D12I], the “folding stability dG” value was 4.66 kcal/mol.
For KKKYVIKVYFEQTGKEVEIEAESKEEALEAAKRLAEELGLKIKKVEIYP [D12Q], the “folding stability dG” value was 4.38 kcal/mol.
In the case of KKKYVIKVYFEYTGKEVEIEAESKEEALEAAKRLAEELGLKIKKVEIYP [D12Y], the “folding stability dG” value is reported as 4.66 kcal/mol.
